US20150125857A1

Tests used:
[1] = target: Frizzled (FZD) on the cell surface of pancreatic cancer cell lines; test: flow cytometry, PK1 cells, pGL2 siRNA
[2] = target: Frizzled (FZD) on the cell surface of pancreatic cancer cell lines; test: flow cytometry, PK1 cells, RNF43 siRNA
[3] = target: Frizzled (FZD) on the cell surface of pancreatic cancer cell lines; test: flow cytometry, YAPC cells, pGL2 siRNA
[4] = target: Frizzled (FZD) on the cell surface of pancreatic cancer cell lines; test: flow cytometry, YAPC cells, RNF43 siRNA
[5] = target: Frizzled (FZD) on the cell surface of pancreatic cancer cell lines; test: flow cytometry, HPAFII cells, pGL2 siRNA
[6] = target: Frizzled (FZD) on the cell surface of pancreatic cancer cell lines; test: flow cytometry, Capan-2 cells, pGL2 siRNA
[7] = target: Frizzled (FZD) on the cell surface of pancreatic cancer cell lines; test: flow cytometry, HPAFII cells, RNF43 siRNA
[8] = target: Frizzled (FZD) on the cell surface of pancreatic cancer cell lines; test: flow cytometry, Capan-2 cells, RNF43 siRNA
[9] = target: Frizzled (FZD) on the cell surface of pancreatic cancer cell lines; test: flow cytometry, YAPC cells treated with DMSO
[10] = target: Frizzled (FZD) on the cell surface of pancreatic cancer cell lines; test: flow cytometry, PaTu-8988S cells, pGL2 siRNA
[11] = target: Frizzled (FZD) on the cell surface of pancreatic cancer cell lines; test: flow cytometry, PaTu-8988S cells, RNF43 siRNA
[12] = target: Frizzled (FZD) on the cell surface of pancreatic cancer cell lines; test: flow cytometry, YAPC cells treated with 3 uM IWP-2
[13] = target: Frizzled (FZD) on the cell surface of pancreatic cancer cell lines; test: flow cytometry, YAPC cells treated with 1 uM LGK974
[14] = target: Frizzled (FZD) on the cell surface of pancreatic cancer cell lines; test: flow cytometry, YAPC cells stably expressing RNF43 F69C
[15] = target: Frizzled (FZD) on the cell surface of pancreatic cancer cell lines; test: flow cytometry, YAPC cells stably expressing RNF43 deltaRING
[16] = target: Frizzled (FZD) on the cell surface of pancreatic cancer cell lines; test: flow cytometry, YAPC cells stably expressing wild-type RNF43
[17] = target: Frizzled (FZD) on the cell surface of pancreatic cancer cell lines; test: flow cytometry, YAPC cells stably expressing empty vector (EV)
[18] = target: Frizzled (FZD) on the cell surface of pancreatic cancer cell lines; test: flow cytometry, YAPC cells transfected with beta-catenin siRNA#1
[19] = target: Frizzled (FZD) on the cell surface of pancreatic cancer cell lines; test: flow cytometry, YAPC cells transfected with beta-catenin siRNA#2
[20] = target: Frizzled (FZD) on the cell surface of pancreatic cancer cell lines; test: flow cytometry, YAPC cells transfected with pGL2 siRNA (control)
[21] = target: Frizzled (FZD) on the cell surface of pancreatic cancer cell lines; test: flow cytometry, YAPC cells transfected with RNF43 siRNA#1, 18R5 + APC anti-human IgG
[22] = target: Frizzled (FZD) on the cell surface of pancreatic cancer cell lines; test: flow cytometry, YAPC cells transfected with RNF43 siRNA#2, 18R5 + APC anti-human IgG
[23] = target: Frizzled (FZD) on the cell surface of pancreatic cancer cell lines; test: flow cytometry, YAPC cells transfected with pGL2 siRNA (control), 18R5 + APC anti-human IgG

Mean FZD intensity in FACS [1]: 473 | Mean FZD intensity in FACS [2]: 923 | Mean FZD intensity in FACS [3]: 353 | Mean FZD intensity in FACS [4]: 1220 | Mean FZD intensity in FACS [5]: 375 | Mean FZD intensity in FACS [6]: 2440 | Mean FZD intensity in FACS [7]: 402 | Mean FZD intensity in FACS [8]: 2640 | Median FZD intensity in FACS [9]: 721 | Mean FZD intensity in FACS [10]: 293 | Mean FZD intensity in FACS [11]: 245 | Median FZD intensity in FACS [12]: 1750 | Median FZD intensity in FACS [13]: 1370 | membrane Frizzled intensity in flow cytometry (RNF43 re-expression) [14]: 1500 | membrane Frizzled intensity in flow cytometry (RNF43 re-expression) [15]: 2000 | membrane Frizzled intensity in flow cytometry (RNF43 re-expression) [16]: 686 | membrane Frizzled intensity in flow cytometry (RNF43 re-expression) [17]: 1040 | Median FZD intensity in FACS [18]: 530 | Median FZD intensity in FACS [19]: 561 | Median FZD intensity in FACS [20]: 137 | Median FZD intensity in FACS [21]: 1500 | Median FZD intensity in FACS [22]: 1750 | Median FZD intensity in FACS [23]: 237
B1: pan-Frizzled antibody 18R5 (antibody, INN chains, looked up, V domains shown)
VH: EVQLVESGGGLVQPGGSLRLSCAASGFTFSHYTLSWVRQAPGKGLEWVSVISGDGSYTYYADSVKGRFTISSDNSKNTLYLQMNSLRAEDTAVYYCARNFIKYVFANWGQGTLVTVSS
VL: DIELTQPPSVSVAPGQTARISCSGDNIGSFYVHWYQQKPGQAPVLVIYDKSNRPSGIPERFSGSNSGNTATLTISGTQAEDEADYYCQSYANTLSLVFGGGTKLTVL
